In the Immune Epitope Database (IEDB) one finds Kd data, which are given here for seven sequences.

For experiment [1], the target named is HLA-B*15:17. Nature of the experiment: IEDB peptide-MHC binding, purified MHC/competitive/fluorescence; filed as Kd, often an IC50 or EC50 that approximates it; ≥ and ≤ were set here for values at or beyond the usual limits of such assays. Particulars: source organism: Rickettsia felis URRWXCal2.
Experiment [2] addresses HLA-B*27:03. The experiment is described as above.
Experiment [3] has as its target HLA-B*39:01. The experiment is described as above.
In experiment [4] the target is HLA-A*02:19. Described as above.
Experiment [5] addresses HLA-A*29:02. The experiment is described as above.
Experiment [6] concerns the target HLA-A*03:01. The description is as above.
The target in experiment [7] is HLA-B*57:01. The experiment is described as above.
In experiment [8] the target is HLA-B*15:01. Described as above.
Experiment [9] has as its target HLA-A*02:01. The description is as above.
Experiment [10] deals with HLA-A*26:01. Described as above.
Experiment [11] concerns the target HLA-B*51:01. The description is as above.
The target in experiment [12] is HLA-B*46:01. The description is as above.
In experiment [13] the target is HLA-A*69:01. The experiment is described as above. Particulars: source organism: Cryptosporidium parvum Iowa II.
Experiment [14] concerns the target HLA-A*02:16. Described as above. Particulars: source organism: Cryptosporidium parvum Iowa II.
The target in experiment [15] is HLA-A*68:02. The experiment is described as above. Particulars: source organism: Cryptosporidium parvum Iowa II.
Experiment [16] has as its target HLA-B*18:01. Described as above.
The target of experiment [17] is HLA-A*02:12. The description is as above. To be noted: source organism: Cryptosporidium parvum Iowa II.
The target in experiment [18] is HLA-A*02:03. The description is as above. To be noted: source organism: Cryptosporidium parvum Iowa II.
For experiment [19], the target named is HLA-B*35:01. Described as above.
The target of experiment [20] is HLA-B*07:02. Described as above. To be noted: source organism: Influenza A virus (A/Harbin/1/1988(H1N2)).
Experiment [21] concerns the target HLA-C*05:01. Nature of the experiment: IEDB peptide-MHC binding, purified MHC/direct/fluorescence; filed as Kd, often an IC50 or EC50 that approximates it; ≥ and ≤ were set here for values at or beyond the usual limits of such assays. To be noted: source organism: Influenza A virus (A/Harbin/1/1988(H1N2)).
Experiment [22] deals with HLA-A*24:02. The experiment is described as above. Particulars: source organism: Giardia lamblia ATCC 50803.
The target of experiment [23] is HLA-A*30:01. Nature of the experiment: IEDB peptide-MHC binding, purified MHC/competitive/fluorescence; filed as Kd, often an IC50 or EC50 that approximates it; ≥ and ≤ were set here for values at or beyond the usual limits of such assays. Particulars: source organism: Orthomarburgvirus marburgense.
The target of experiment [24] is HLA-B*48:01. Described as above. Particulars: source organism: Orthomarburgvirus marburgense.
In experiment [25] the target is HLA-B*15:17. Nature of the experiment: IEDB peptide-MHC binding, purified MHC/direct/fluorescence; filed as Kd, often an IC50 or EC50 that approximates it; ≥ and ≤ were set here for values at or beyond the usual limits of such assays. To be noted: source organism: Lake Victoria marburgvirus - Popp.
Experiment [26] deals with HLA-B*58:01. The description is as above. To be noted: source organism: Lake Victoria marburgvirus - Popp.
The target in experiment [27] is HLA-B*08:01. The description is as above. Particulars: source organism: Orthomarburgvirus marburgense.
The target in experiment [28] is HLA-A*69:01. The description is as above. To be noted: source organism: Lake Victoria marburgvirus - Popp.
In experiment [29] the target is HLA-B*40:01. Described as above. To be noted: source organism: Lake Victoria marburgvirus - Popp.
For experiment [30], the target named is HLA-A*68:02. The description is as above. To be noted: source organism: Lake Victoria marburgvirus - Popp.
Experiment [31] concerns the target HLA-A*31:01. The description is as above. To be noted: source organism: Lake Victoria marburgvirus - Popp.
For experiment [32], the target named is HLA-B*18:01. The experiment is described as above. Particulars: source organism: Lake Victoria marburgvirus - Popp.
The target in experiment [33] is HLA-B*07:02. The experiment is described as above. To be noted: source organism: Lake Victoria marburgvirus - Popp.
For experiment [34], the target named is HLA-B*27:05. The description is as above. To be noted: source organism: Lake Victoria marburgvirus - Popp.
Experiment [35] deals with HLA-B*57:01. The description is as above. Particulars: source organism: Lake Victoria marburgvirus - Popp.
For experiment [36], the target named is HLA-A*02:01. The description is as above. Particulars: source organism: Lake Victoria marburgvirus - Popp.
For experiment [37], the target named is HLA-B*15:09. The description is as above. Particulars: source organism: Orthomarburgvirus marburgense.
Experiment [38] addresses HLA-A*26:01. The experiment is described as above. To be noted: source organism: Orthomarburgvirus marburgense.
Experiment [39] has as its target HLA-A*01:01. The description is as above. Particulars: source organism: Lake Victoria marburgvirus - Popp.
For experiment [40], the target named is HLA-A*11:01. The experiment is described as above. Particulars: source organism: Lake Victoria marburgvirus - Popp.
Where [41] appears, read: source organism: Rickettsia felis URRWXCal2.
The mark [42] stands for this setting: source organism: Cryptosporidium parvum Iowa II.
Setting [43] is: source organism: Influenza A virus (A/Harbin/1/1988(H1N2)).
Where [44] appears, read: source organism: Influenza A virus (A/Aichi/2/1994(H3N2)).

As for QYLFSLTYV, the Kd in [1] was ≥ 20 µM; in experiment [2] (setting [41]) it was ≥ 20 µM; in experiment [3] (setting [41]), ≥ 20 µM; in experiment [4] (setting [41]), ≥ 20 µM; in experiment [5] (setting [41]) it was 8 µM; in experiment [6] (setting [41]), ≥ 20 µM. Moreover, the Kd in [7] (setting [41]) was ≥ 20 µM; in experiment [8] (setting [41]) it was ≥ 20 µM; in [9] (setting [41]), 1.19 µM; in [10] (setting [41]), ≥ 20 µM; in experiment [11] (setting [41]), ≥ 20 µM; in experiment [12] (setting [41]), ≥ 20 µM.
As to KSFSAGMFH, the Kd in [2] (setting [42]), in [3] (setting [42]), in experiment [13], in [4] (setting [42]), in experiment [14] and in [5] (setting [42]) was ≥ 20 µM each time. For the same sequence, the dissociation constant (Kd) in [15] was ≥ 20 µM; in experiment [16] (setting [42]) it was ≥ 20 µM; in experiment [7] (setting [42]), 0.574 µM; in [17] it was ≥ 20 µM; in [9] (setting [42]) it was ≥ 20 µM; in experiment [10] (setting [42]) it was ≥ 20 µM. Also, the equilibrium dissociation constant (Kd) in experiment [11] (setting [42]), in experiment [18] and in experiment [12] (setting [42]) was ≥ 20 µM throughout.
Regarding LPFQNVHPV, the Kd is 0.0004 µM in experiment [19] (setting [43]), 0.161 µM in [20], 1.49 µM in [11] (setting [43]) and ≥ 20 µM in [21].
RYMRVYNLW came in with a dissociation constant (Kd) in [22] of 0.002 µM.
With FQNVNRITY, the figures for the Kd in experiment [19] (setting [44]) and in experiment [8] (setting [44]) were 0.0394 µM and 0.0751 µM, respectively.
Take VVPSYIPLV: the dissociation constant Kd in experiment [2] (source organism: Homo sapiens), in experiment [3] (source organism: Homo sapiens), in experiment [5] (source organism: Homo sapiens), in experiment [6] (source organism: Homo sapiens), in experiment [16] (source organism: Homo sapiens) and in experiment [7] (source organism: Homo sapiens) was ≥ 20 µM throughout. The Kd is ≥ 20 µM in experiment [8] (source organism: Homo sapiens), 0.0007 µM in [9] (source organism: Homo sapiens) and ≥ 20 µM in [12] (source organism: Homo sapiens).
Turning to GELRKAICL, the Kd in experiment [23], in experiment [24], in [25], in [26], in experiment [27] and in [28] was ≥ 20 µM in each case. Further, the Kd in experiment [29] was 0.074 µM; in experiment [30], ≥ 20 µM; in experiment [31], ≥ 20 µM; in [32], 9 µM; in experiment [33] it was ≥ 20 µM; in experiment [34], ≥ 20 µM. The Kd in experiment [35], in experiment [36], in experiment [37], in [38], in experiment [39] and in experiment [40] was ≥ 20 µM in each case.

As a reminder, the Kd is the free concentration of one partner at which half of the binding sites on the other are occupied at equilibrium, for simple one-to-one binding.
